This note sets out measurements from patent US20240325499A1, “FGF21 COMPOUND / GLP-1R AGONIST COMBINATIONS WITH OPTIMIZED ACTIVITY RATIO” (SANOFI, priority 2018, published 2024).

The target in test [1] is T1, human FGFR1c and KLB (Homo sapiens, UniProt P11362+Q86Z14).
T1 construct: host or cells: CHO Flp-In cells
The experiment in a line: In-Cell Western FGF21 receptor autophosphorylation (pFGFR ICW) in CHO cells. It is filed as cell-based. The following applies: CHO cells overexpressing human FGFR1c and KLB; 5 min stimulus; n = 59. The protocol: (§1) The cellular in vitro efficacy of mature human FGF21 (SEQ ID NO: 2) or FGF21 variants was measured using a specific and highly sensitive In-Cell Western (ICW) assay. The ICW assay is an immunocytochemical assay usually performed in microplate format. CHO Flp-In cells (Invitrogen, Darmstadt, Germany) stably expressing the human FGFR1c (=FGF receptor 1c isoform) together with human beta-Klotho (KLB) were used for an FGF21 receptor autophosphorylation assay using In-Cell Western (Aguilar H. N. et al. (2010) PLoS ONE 5(4): e9965). In order to determine the receptor autophosphorylation level or downstream activation of the MAP kinase ERK1/2, 2×10^4 cells/well were seeded into 96-well plates and grown for 48 h. Cells were serum starved with serum-free medium Ham's F-12 Nutrient Mix with GlutaMAX (Gibco, Darmstadt, Germany) for 3-4 h. The cells were subsequently treated with increasing concentrations of either mature human FGF21 (SEQ ID NO: 2) for 5 min at 37° C. After incubation, the medium was discarded, and the cells were fixed in 3.7% freshly prepared para-formaldehyde for 20 min. […] Subsequently, cells were washed again with PBS plus 0.1% Tween20, and infrared dye signals were quantified with an Odyssey imager (LICOR, Bad Homburg, Germany). Results were normalized by quantification of DNA with TO-PRO3 dye (Invitrogen, Karlsruhe, Germany). […]

Test [2] deals with T1, human FGFR1c and KLB. The experiment in a line: In-Cell Western ERK1/2 phosphorylation (pERK ICW) in CHO cells. The format is cell-based. The note with it: CHO cells overexpressing human FGFR1c and KLB; 5 min stimulus; n = 61. The protocol:
as §1

B1: mature human wild-type FGF21, FGF21(His29-Ser209) (protein, listed as Homo sapiens)
chain: HPIPDSSPLLQFGGQVRQRYLYTDDAQQTEAHLEIREDGTVGGAADQSPESLLQLKALKPGVIQILGVKTSRFLCQRPDGALYGSLHFDPEACSFRELLLEDGYNVYQSEAHGLPLHLPGNKSPHRDPAPRGPARFLPLPGLPPAPPEPPGILAPQPPDVGSSDPLSMVGPSQGRSPSYAS
In the case of B1, the EC50 with human FGFR1c and KLB [1] was found to be 4.8 ± 0.23 nM; with human FGFR1c and KLB [2] it was 0.18 ± 0.02 nM.

In general, EC50 refers to the concentration at which the effect is half-maximal.
